Changes are numbered by the printed parent chain. Names may count otherwise. “And” between values parts separate entries of the source, which are not always exact repeats. Identical values can stand only once.
T1: endogenous (native) STAT1 of HeLa cells (human (endogenous in HeLa)), P42224
T1 chain: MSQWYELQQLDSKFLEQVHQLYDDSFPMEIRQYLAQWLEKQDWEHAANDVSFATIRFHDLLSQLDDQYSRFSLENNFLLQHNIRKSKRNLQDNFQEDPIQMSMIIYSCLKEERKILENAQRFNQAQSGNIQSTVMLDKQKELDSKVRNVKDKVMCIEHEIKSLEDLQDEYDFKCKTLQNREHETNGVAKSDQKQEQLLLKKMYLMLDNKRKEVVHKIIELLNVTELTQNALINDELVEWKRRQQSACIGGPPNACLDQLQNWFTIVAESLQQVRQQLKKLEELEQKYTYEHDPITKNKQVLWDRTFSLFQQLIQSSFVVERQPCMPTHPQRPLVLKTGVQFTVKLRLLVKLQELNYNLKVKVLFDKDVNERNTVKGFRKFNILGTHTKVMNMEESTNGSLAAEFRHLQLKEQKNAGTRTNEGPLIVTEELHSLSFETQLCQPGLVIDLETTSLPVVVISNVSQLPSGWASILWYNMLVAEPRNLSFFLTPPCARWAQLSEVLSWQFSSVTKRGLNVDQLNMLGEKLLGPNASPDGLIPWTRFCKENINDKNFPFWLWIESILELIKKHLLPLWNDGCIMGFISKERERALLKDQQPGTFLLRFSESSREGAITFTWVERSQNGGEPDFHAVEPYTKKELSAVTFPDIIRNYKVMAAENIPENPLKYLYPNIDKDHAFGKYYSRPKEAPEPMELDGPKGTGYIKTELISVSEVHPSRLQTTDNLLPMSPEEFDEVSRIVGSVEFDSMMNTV

B1: STAT1-WT-GFP (wild-type human STAT1 fused to green fluorescent protein) (natural protein, UniProt P42224 1-746, looked up)
chain: MSQWYELQQLDSKFLEQVHQLYDDSFPMEIRQYLAQWLEKQDWEHAANDVSFATIRFHDLLSQLDDQYSRFSLENNFLLQHNIRKSKRNLQDNFQEDPIQMSMIIYSCLKEERKILENAQRFNQAQSGNIQSTVMLDKQKELDSKVRNVKDKVMCIEHEIKSLEDLQDEYDFKCKTLQNREHETNGVAKSDQKQEQLLLKKMYLMLDNKRKEVVHKIIELLNVTELTQNALINDELVEWKRRQQSACIGGPPNACLDQLQNWFTIVAESLQQVRQQLKKLEELEQKYTYEHDPITKNKQVLWDRTFSLFQQLIQSSFVVERQPCMPTHPQRPLVLKTGVQFTVKLRLLVKLQELNYNLKVKVLFDKDVNERNTVKGFRKFNILGTHTKVMNMEESTNGSLAAEFRHLQLKEQKNAGTRTNEGPLIVTEELHSLSFETQLCQPGLVIDLETTSLPVVVISNVSQLPSGWASILWYNMLVAEPRNLSFFLTPPCARWAQLSEVLSWQFSSVTKRGLNVDQLNMLGEKLLGPNASPDGLIPWTRFCKENINDKNFPFWLWIESILELIKKHLLPLWNDGCIMGFISKERERALLKDQQPGTFLLRFSESSREGAITFTWVERSQNGGEPDFHAVEPYTKKELSAVTFPDIIRNYKVMAAENIPENPLKYLYPNIDKDHAFGKYYSRPKEAPEPMELDGPKGTGYIKTELISVSEVHPSRLQTTDNLLPMSPEEFDEVSRIVGSVEFDSM
modifications: tyrosine-phosphorylated (phospho-Tyr701) after stimulation of cells with IFNγ
notes: also called STAT1-GFP; GFP-tagged wild-type STAT1; source: HeLa cells, transfected (pEGFP-N1-STAT1), IFNγ-stimulated, in whole cell lysate; not shown: GFP, C-terminal, kept
B2: wild-type STAT1 expressed in STAT1-negative U3A cells (natural protein, human, UniProt P42224 1-746, looked up)
chain: B1 chain
modifications: tyrosine-phosphorylated after stimulation of cells with IFNγ
notes: STAT1, human; also called STAT1-WT; source: U3A cells, transfected, IFNγ-stimulated, in cell extract
B3: STAT1-E411A expressed in STAT1-negative U3A cells (natural protein, human, UniProt P42224 1-746, looked up)
chain: B1 chain with E411A
modifications: tyrosine-phosphorylated after stimulation of cells with IFNγ
notes: STAT1, human; glutamic acid 411 changed to alanine; also called E411A mutant; mutant STAT1; source: U3A cells, transfected, IFNγ-stimulated, in cell extract
B4: STAT1-E411A-GFP (natural protein, human, UniProt P42224 1-746, looked up)
chain: B1 chain with E411A
modifications: tyrosine-phosphorylated (phospho-Tyr701) after stimulation of cells with IFNγ
notes: STAT1, human; also called E411 mutant; source: HeLa cells, transfected (pEGFP-N1-STAT1 with point mutation), IFNγ-stimulated, in whole cell lysate; not shown: GFP, C-terminal, kept
B5: endogenous (native) STAT1 of HeLa cells, P42224 1-750 (natural protein)
chain: T1 chain
modifications: here or on the partner: tyrosine-phosphorylated (phospho-Tyr701) after stimulation of cells with IFNγ; tyrosine-phosphorylated (phospho-Tyr701) after stimulation of cells with IFNγ

Legend:
[1] = target: the molecule itself; assay: native gel or EMSA; whole cell lysates of HeLa cells (IFNγ 45 min, then staurosporine for the durations indicated) incubated in vitro with 32P-labelled M67 DNA (single high-affinity GAS site); STAT1 dimers seen as DNA-bound complexes on a 4% acrylamide gel at 4°C; homo- and heterodimers told apart by mobility
[2] = target: the molecule itself; assay: native gel or EMSA; extracts of IFNγ-stimulated U3A cells incubated in vitro with 32P-labelled DNA containing a tandem GAS site; unchallenged or challenged for 30 min with a 750-fold molar excess of a single unlabelled GAS site (M67); dimeric and tetrameric STAT1 seen as DNA-bound complexes
[3] = target: T1, endogenous (native) STAT1 of HeLa cells …; assay: native gel or EMSA; whole cell lysates of HeLa cells (IFNγ 45 min, then staurosporine for the durations indicated) incubated in vitro with 32P-labelled M67 DNA (single high-affinity GAS site); STAT1 dimers seen as DNA-bound complexes on a 4% acrylamide gel at 4°C; homo- and heterodimers told apart by mobility; conditions: remark: other sources report otherwise

Binder | stoichiometry N [1] | stoichiometry N [2] | also measured
B1 | 2 | – | –
B2 | – | 2 and 4 | –
B3 | – | 2 and 4 | –
B4 | 2 | – | –
B5 | – | – | stoichiometry N [3]: 2

From publication PMC3507856, “Two glutamic acid residues in the DNA-binding domain are engaged in the release of STAT1 dimers from DNA” (BMC Cell Biology, 2012)
